Positions count from the first letter of the chain named.

Assay [1] deals with T1, murine MCAM-Fc fusion protein (mouse, UniProt Q8R2Y2 24-563).
T1 construct: extracellular domain; produced in CHO cells; also called mouse MCAM-Fc; mouse MCAMhFc; not shown: fused to human IgG
T1 sequence (looked up): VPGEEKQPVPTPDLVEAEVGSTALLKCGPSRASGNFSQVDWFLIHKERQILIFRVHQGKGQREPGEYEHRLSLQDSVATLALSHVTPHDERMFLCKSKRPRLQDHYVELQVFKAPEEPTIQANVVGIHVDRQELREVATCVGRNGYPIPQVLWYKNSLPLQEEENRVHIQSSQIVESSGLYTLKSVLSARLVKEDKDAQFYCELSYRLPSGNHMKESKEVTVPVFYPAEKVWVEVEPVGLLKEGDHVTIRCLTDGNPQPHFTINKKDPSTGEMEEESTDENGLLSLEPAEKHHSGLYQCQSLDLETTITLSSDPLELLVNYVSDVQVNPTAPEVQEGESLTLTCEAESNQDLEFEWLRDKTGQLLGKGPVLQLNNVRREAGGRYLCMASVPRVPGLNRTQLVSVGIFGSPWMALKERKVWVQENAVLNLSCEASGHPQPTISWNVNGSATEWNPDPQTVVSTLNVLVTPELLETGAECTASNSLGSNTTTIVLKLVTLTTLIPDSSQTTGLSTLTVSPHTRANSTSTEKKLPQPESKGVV
Kind of assay: ForteBio Octet Red, anti-human IgG Fc (AHC) biosensors loaded with mouse MCAM-hFc proteins (5 ug/ml), dipped into antibody (5 ug/ml) or SP2 media. From the text: (§1) The following protocol was used: ForteBio Domain Mapping Protocol. ForteBio anti-human IgG Fc biosensors were used to immobilize various mouse MCAMhFc domains including full length mouse MCAMhFc protein on to biosensor surface. These sensors were dipped into either clone 15 or 17 MCAM specific antibody for detection of binding to these domains or full length protein. After loading these samples into a black 96 well plate, the Octet Red was programmed as follows: 60 seconds for baseline #1; 180 seconds for loading various domains; 60 seconds for baseline #2; 180 seconds for association of antibody to domain; and 240 seconds for dissociation of antibody from domain.
(§2) 1. Mouse MCAMhFc final concentration @ 5 ug/ml [0466] 2. Antibody clone 15 or 17 @ 5 ug/ml [0467] 3. ForteBio anti-human IgG Fc Capture (AHC) biosensors for kinetics experiments, cat#18-5060 [0468] 4. […] 5. ForteBio Octet Red machine [0470] 6. Fresh tissue culture medium, DMEM with 20% FCS, was used as buffer for dilution
(§3) For FIGS. 10A-B, clones 15 and 17 were tested against the following protein samples (all have human IgG Fc tag): Murine MCAM; Human Fc full length protein; Murine MCAM domain 1 (Ig1); Murine MCAM domain 2 (Ig2); and Murine MCAM domain 1 and 2 (Ig1-2A).
Background: BLI is a label-free optical method that tracks binding on a fibre tip over time.

For another assay, the target named is T2, Ig2 domain (mouse, UniProt Q8R2Y2).
T2 construct: isolated domain 2; also called Murine MCAM domain 2 (Ig2) with human IgG Fc tag
T2 sequence (Fc fusion chain, looked up): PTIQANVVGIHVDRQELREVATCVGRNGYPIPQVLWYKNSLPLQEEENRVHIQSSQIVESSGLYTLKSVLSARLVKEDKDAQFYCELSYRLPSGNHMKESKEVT
The assay is described as above.
Excerpt: as §1, §2, §3

The target in assay [2] is T3, mouse MCAM expressed on transfected CHO cells (mouse, UniProt Q8R2Y2 24-648).
T3 construct: whole, on cells; also called murine MCAM
T3 sequence (looked up): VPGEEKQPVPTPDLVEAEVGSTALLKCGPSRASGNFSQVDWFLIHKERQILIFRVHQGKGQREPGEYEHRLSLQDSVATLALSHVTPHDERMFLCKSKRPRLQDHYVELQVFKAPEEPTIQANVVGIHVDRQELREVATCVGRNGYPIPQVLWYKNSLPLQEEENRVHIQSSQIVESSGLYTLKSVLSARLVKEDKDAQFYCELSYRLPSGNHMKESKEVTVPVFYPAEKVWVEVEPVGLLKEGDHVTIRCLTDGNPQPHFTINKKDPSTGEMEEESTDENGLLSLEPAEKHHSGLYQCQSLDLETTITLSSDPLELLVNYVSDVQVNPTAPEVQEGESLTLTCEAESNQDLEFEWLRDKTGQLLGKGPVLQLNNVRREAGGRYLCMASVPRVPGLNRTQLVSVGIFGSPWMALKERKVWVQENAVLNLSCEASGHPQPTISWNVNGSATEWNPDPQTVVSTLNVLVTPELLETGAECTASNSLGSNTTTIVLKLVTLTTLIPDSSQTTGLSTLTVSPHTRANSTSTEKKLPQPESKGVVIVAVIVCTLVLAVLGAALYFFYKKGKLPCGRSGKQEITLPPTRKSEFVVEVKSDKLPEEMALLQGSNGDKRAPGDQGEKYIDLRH
In words: flow cytometry, mouse MCAM transfected cells mixed with CFSE-labelled untransfected cells. The protocol: For the generation of antibodies capable of binding to murine MCAM, MCAM-Fc was generated by fusing the extracellular domain of murine MCAM to human IgG and produced in CHO cells using standard techniques. Lou/M rats were immunized with 100 μg of MCAM-Fc protein in CFA (1:1 volume). Rats were boosted two times at two week intervals with MCAM-Fc protein in incomplete Freund's adjuvant (IFA) (1:1 volume). Hybridomas were generated from immunized rats using standard protocols and clones were selected by Clonepix. CHO cells were transfected with the full length murine MCAM gene and selected for stable expression using neomycin and standard techniques. Parental CHO cells (MCAM negative) were fluorescently labeled with carboxyfluorescein succinimidyl ester (CFSE) using standard techniques and mixed at a 1:1 ratio with unlabeled MCAM transfected CHO cells. Hybridoma supernatants were incubated with this mixture of cells for 30 minutes and binding of potential MCAM specific antibodies was detected with a fluorescently labeled anti-rat secondary antibody (Jackson Immuno) by flow cytometry.
In general terms: Flow cytometry measures light scatter and fluorescence of single cells or particles in a stream.

Assay [3] has as its target T4, human MCAM (melanoma cell adhesion molecule) expressed on transfected CHO cells (human, UniProt P43121 24-646).
T4 construct: also called hMCAM; CD146
T4 chain: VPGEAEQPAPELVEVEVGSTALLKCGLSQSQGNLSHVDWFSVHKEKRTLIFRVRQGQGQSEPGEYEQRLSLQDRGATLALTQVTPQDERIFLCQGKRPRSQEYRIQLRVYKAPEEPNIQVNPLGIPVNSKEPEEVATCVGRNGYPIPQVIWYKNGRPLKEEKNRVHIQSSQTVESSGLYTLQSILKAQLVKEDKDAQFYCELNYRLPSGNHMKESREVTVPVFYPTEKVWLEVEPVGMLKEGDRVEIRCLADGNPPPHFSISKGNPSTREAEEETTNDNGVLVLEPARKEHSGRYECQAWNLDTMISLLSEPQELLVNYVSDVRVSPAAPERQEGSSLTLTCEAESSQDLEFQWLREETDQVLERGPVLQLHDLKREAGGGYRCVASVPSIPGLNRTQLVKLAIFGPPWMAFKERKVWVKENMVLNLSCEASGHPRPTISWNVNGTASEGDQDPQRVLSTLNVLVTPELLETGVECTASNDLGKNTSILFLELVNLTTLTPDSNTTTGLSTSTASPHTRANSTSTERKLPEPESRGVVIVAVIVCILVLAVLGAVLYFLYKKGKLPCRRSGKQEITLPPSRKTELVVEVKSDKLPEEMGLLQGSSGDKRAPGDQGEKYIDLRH
Kind of assay: laminin/FACS on hMCAM CHO cells, competitor laminin 411; Expt#1; vs rodent 2120. Here is the method:
(§4) Following incubation for 30-45 minutes, the cells were washed and anti-laminin conjugated to AF650 (NovusBio) was added to detect the bound laminin. The cells were run on a flow cytometer to measure the laminin binding signal.

Assay [4] has as its target T5, recombinant hMCAM-His (human, UniProt P43121 24-559).
T5 construct: not shown: His tag
T5 chain: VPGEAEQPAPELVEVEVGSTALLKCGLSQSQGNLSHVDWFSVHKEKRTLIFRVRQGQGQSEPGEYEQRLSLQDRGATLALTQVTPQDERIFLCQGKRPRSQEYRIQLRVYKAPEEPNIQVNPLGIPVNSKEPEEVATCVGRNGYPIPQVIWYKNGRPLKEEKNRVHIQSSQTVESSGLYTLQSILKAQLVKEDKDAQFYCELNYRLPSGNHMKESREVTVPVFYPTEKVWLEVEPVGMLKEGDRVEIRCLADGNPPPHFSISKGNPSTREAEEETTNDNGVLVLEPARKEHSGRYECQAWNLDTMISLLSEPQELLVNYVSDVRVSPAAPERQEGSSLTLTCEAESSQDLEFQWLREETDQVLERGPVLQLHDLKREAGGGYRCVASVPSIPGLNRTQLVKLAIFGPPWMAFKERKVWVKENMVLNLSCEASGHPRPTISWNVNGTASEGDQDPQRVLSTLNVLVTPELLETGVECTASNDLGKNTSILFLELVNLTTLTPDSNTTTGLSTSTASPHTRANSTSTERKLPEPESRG
In words: ForteBio Octet Red, hMCAM-His analyte; Expt. #2; vs rodent 2120. The protocol:
(§5) The affinities were measured using the ForteBio Octet Red. Anti-human Fc sensors were used to capture the humanized antibodies, and several concentrations of hMCAMHis analyte were used to determine the affinity using a 1:1 fitting model.

Assay [5] addresses T5, recombinant hMCAM-His. Kind of assay: ForteBio Octet Red, hMCAM-His analyte; Expt. #1; vs rodent 2120. The protocol:
as §5

In assay [6] the target is T4, human MCAM (melanoma cell adhesion …). In words: laminin/FACS on hMCAM CHO cells, competitor laminin 411; Expt#2; vs rodent 2120. The protocol: as §4
Assay [7] addresses T5, recombinant hMCAM-His. Kind of assay: ForteBio Octet Red, hMCAM-His analyte; Forte column 1; vs rodent 2120. Here is the method: as §5
Assay [8] deals with T5, recombinant hMCAM-His. Kind of assay: competitive ELISA on hMCAM-His, competitor biotinylated rodent or chimeric 2120; Expt. #2; vs rodent 2120. Here is the method: (§6) ELISA plates were coated with recombinant hMCAM-His, and blocked with casein buffer to prevent non-specific binding. Biotinylated rodent or chimeric antibody was added at a subsaturating concentration, in the presence or absence of 3× increasing concentrations of unlabeled competitor (humanized antibody, rodent, or chimeric). After washing to remove unbound antibody, streptavidin HRP was added to allow detection of the biotinylated antibody. The ELISA was developed with TMB substrate and the OD450 was measured. The IC50 of the unlabeled competitor was determined using the GraphPad Prism5 software.
In general terms: In an ELISA, binding on a coated surface is turned into a signal by an enzyme label.

Assay [9] addresses T5, recombinant hMCAM-His. Kind of assay: ForteBio Octet Red, hMCAM-His analyte; Forte column 2; vs rodent 2120. Here is the method:
as §5

The target of assay [10] is T5, recombinant hMCAM-His. Kind of assay: summary of ForteBio, hMCAM-His; vs rodent 2120. The protocol: as §5
In assay [11] the target is T5, recombinant hMCAM-His. In words: competitive ELISA on hMCAM-His, competitor biotinylated rodent or chimeric 2120; vs rodent 2120. Here is the method:
as §6

In assay [12] the target is T5, recombinant hMCAM-His. In words: competitive ELISA on hMCAM-His, competitor biotinylated rodent or chimeric 2120; Expt. #1; vs rodent 2120. Here is the method: as §6

B1: anti-MCAM monoclonal antibody clone 17 (antibody, V domains shown)
VH: EVQLVESGGGLVQPGRSLKLSCAASGFTFSNYYMAWVRQAPTKGLEWVASISFEGNRNHYGDSVKGRITISRDNAKSTLYLQMTSLRPEDTATYYCARHRGYSTNFYHDVLDAWGQGALVTVSS
VL: DVQMTQSPSYLATSPGESVSISCKASKNIDTYLAWYQEKPGKTNKLLIYSGSTLQSGTPSRFSGSGSGTDFTLTIRNLESEDFAVYYCQQHNEYPLTFGSGTKLEIKR
notes: rat monoclonal raised against murine MCAM-Fc; also called anti-MCAM clone 17
B1: the binding result is reported as “binds” in assay [1], “no binding (tested: 5 ug/ml)” in the assay with Ig2 domain and “binds” in [2].

B2: h2120_VH1 + h2120_VL3 (antibody, human IgG1, V domains shown)
VH: QVTLKESGPVLVKPTETLTLTCTVSGFSLTSNGVSWVRQPPGKALEWIAAISSGGTTYYNSAFKSRLTISRDTSKSQVVLTMTNMDPVDTATYYCARRYGYGWYFDFWGQGTLVTVSS
VL: DIQMTQSPSSLSASVGDRVTINCKASQNIYNSLAWYQQKPGKAPKVLIFNANSLQTGIPSRFSGSGSGTDFTLTISSLQPEDFATYYCQQFYSGYTFGQGTKLEIK
For the molecule B2, the “fold over rodent (blocking, laminin/FACS)” value in [3] was determined as 1.7 fold; in assay [6] it was 2.8 fold. For the same molecule, the “fold over rodent (Forte affinity)” value is 6.21 fold in the assay with recombinant hMCAM-His [4], 5.64 fold in the assay with recombinant hMCAM-His [5], 5.9 fold in the assay with recombinant hMCAM-His [7] and 5.8 fold in the assay with recombinant hMCAM-His [9]. The “fold over rodent (competitive ELISA)” value worked out at 2.42 fold with recombinant hMCAM-His [8], 1.8 fold in the assay with recombinant hMCAM-His [11] and 2.23 fold with recombinant hMCAM-His [12]. In addition, in the assay with recombinant hMCAM-His [10], the “fold reduction in affinity as measured by ForteBio” value was greater than 5 fold.

B3: h2120_VH2 + h2120_VL3 (antibody, human IgG1, V domains shown)
VH: B2 VH with T68S
VL: B2 VL
In the case of B3, the figures for the “fold over rodent (Forte affinity)” value in the assay with recombinant hMCAM-His [4] and with recombinant hMCAM-His [5] were 6.43 fold and 6.57 fold, respectively. Also, the “fold over rodent (competitive ELISA)” value with recombinant hMCAM-His [8] was found to be 2.62 fold; in the assay with recombinant hMCAM-His [12], 1.93 fold. Moreover, the “fold reduction in affinity as measured by ForteBio” value with recombinant hMCAM-His [10] was greater than 5 fold.

These data come from US20150239980A1 (NEOTOPE BOSCIENCES, published 2015).
